One variant from IntAct's records for PubMed 25533949 can be followed below.

The chains are these.
B1: Tyrosine--tRNA ligase, cytoplasmic (Homo sapiens), P54577 (parent)
chain: MGDAPSPEEKLHLITRNLQEVLGEEKLKEILKERELKIYWGTATTGKPHVAYFVPMSKIADFLKAGCEVTILFADLHAYLDNMKAPWELLELRVSYYENVIKAMLESIGVPLEKLKFIKGTDYQLSKEYTLDVYRLSSVVTQHDSKKAGAEVVKQVEHPLLSGLLYPGLQALDEEYLKVDAQFGGIDQRKIFTFAEKYLPALGYSKRVHLMNPMVPGLTGSKMSSSEEESKIDLLDRKEDVKKKLKKAFCEPGNVENNGVLSFIKHVLFPLKSEFVILRDEKWGGNKTYTAYVDLEKDFAAEVVHPGDLKNSVEVALNKLLDPIREKFNTPALKKLASAAYPDPSKQKPMAKGPAKNSEPEEVIPSRLDIRVGKIITVEKHPDADSLYVEKIDVGEAEPRTVVSGLVQFVPKEELQDRLVVVLCNLKPQKMRGVESQGMLLCASIEGINRQVEPLDPPAGSAPGEHVFVKGYEKGQPDEELKPKKKVFEKLQADFKISEECIAQWKQTNFMTKLGSISCKSLKGGNIS

In the assay the parent is B1. The note with it: with parp1_human PARP1, P09874.
Sequence of parp1_human PARP1, P09874 (P09874 whole entry): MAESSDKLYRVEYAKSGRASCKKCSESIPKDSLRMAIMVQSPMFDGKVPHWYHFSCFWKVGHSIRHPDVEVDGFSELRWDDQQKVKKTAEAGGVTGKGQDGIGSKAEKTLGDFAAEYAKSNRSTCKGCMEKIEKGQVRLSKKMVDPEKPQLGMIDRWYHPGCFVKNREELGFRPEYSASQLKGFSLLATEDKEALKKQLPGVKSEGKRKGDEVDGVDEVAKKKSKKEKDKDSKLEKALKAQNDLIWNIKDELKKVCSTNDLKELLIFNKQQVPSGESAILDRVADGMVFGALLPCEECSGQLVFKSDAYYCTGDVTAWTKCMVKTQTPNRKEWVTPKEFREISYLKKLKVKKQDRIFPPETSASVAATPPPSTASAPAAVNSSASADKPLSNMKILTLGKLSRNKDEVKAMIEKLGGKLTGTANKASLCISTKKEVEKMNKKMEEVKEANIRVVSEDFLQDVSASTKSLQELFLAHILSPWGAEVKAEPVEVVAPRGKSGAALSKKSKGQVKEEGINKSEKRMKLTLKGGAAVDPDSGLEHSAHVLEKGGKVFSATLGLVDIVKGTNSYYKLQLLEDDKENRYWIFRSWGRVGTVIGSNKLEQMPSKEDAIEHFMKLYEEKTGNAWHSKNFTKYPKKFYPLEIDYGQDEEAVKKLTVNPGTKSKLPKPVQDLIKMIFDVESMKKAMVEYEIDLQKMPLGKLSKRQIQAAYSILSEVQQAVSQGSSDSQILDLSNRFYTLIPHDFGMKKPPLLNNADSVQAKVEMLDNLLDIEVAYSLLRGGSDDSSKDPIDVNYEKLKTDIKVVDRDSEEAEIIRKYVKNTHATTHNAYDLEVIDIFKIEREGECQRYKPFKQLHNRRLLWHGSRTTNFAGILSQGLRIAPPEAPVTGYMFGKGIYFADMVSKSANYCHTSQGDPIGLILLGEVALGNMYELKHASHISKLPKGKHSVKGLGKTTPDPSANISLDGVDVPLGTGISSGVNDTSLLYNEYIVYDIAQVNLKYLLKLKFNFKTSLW
For the variant MGDAPSPEEKLHLITRNLQEVLGEEKLKEILKERELKIYWGTATTGKPHVAYFVPMSKIADFLKAGCEVTILFADLHAYLDNMKAPWELLELRVSYYENVIKAMLESIGVPLEKLKFIKGTDYQLSKEYTLDVYRLSSVVTQHDSKKAGAEVVKQVEHPLLSGLLYPGLQALDEEYLKVDAQFGGIDQRKIFTFAEKYLPALGYSKRVHLMNPMVPGLTGSKMSSSEEESKIDLLDRKEDVKKKLKKAFCEPGNVENNGVLSFIKHVLFPLKSEFVILRDEKWGGNKTYTAYVDLEKDFAAEVVHPGDLKNSVEVALNKLLDPIREKFNTPALKKLASAAAPDPSKQKPMAKGPAKNSEPEEVIPSRLDIRVGKIITVEKHPDADSLYVEKIDVGEAEPRTVVSGLVQFVPKEELQDRLVVVLCNLKPQKMRGVESQGMLLCASIEGINRQVEPLDPPAGSAPGEHVFVKGYEKGQPDEELKPKKKVFEKLQADFKISEECIAQWKQTNFMTKLGSISCKSLKGGNIS [Y341A], the “effect of a mutation on the interaction” value is on record as “increasing interaction strength”.
